In the DeepSol protein solubility set:

Assay: soluble on expression in E. coli; label from the status in PepcDB or PDB records

| Sequence | soluble on expression in E. coli |
| --- | --- |
| MITLIFPGFNNVHVSGMDIEEKIRKIEEEIQKTPYNKATAHHIGKLKAKISRLKEEALQRKTSSGKGRGFHIKKSGDSTVVLIGFPSVGKSTLLNELTSAESKVGDYQFTTLEIVPGVMEYRGAQIQIFDIPGIITGASRGRGRGREILSVARSADLIVIVLDVFNTDHMDIILRELRDVGIRPNETPPDVIVKRRKLGGVKLSATVELTHLDEKIIRSVLNEYGIHNADVLIRDDITVDQFIDVMEANRAYIPAITVINKIDLVDESYLEGLREKFPEALFISADRDINIDELREEIFNRLGLIRIYLKPQGKKADYDEPLIIREGSTVGDVCQKLHRDFVRKFRHARVWGSSVKFDGQKVGLEHVLNDEDVLRIIIKK | not soluble |
| MITMKISSRFSIAVHILSILKNNPSSLCTSDYMAESVNTNPVVIRKIMSYLKQAGFVYVNRGPGGAGLLKDLHEITLLDVYHAVNVVEEDKLFHIHEQPNPDCPIGANIQAVLEIILIQAQSAMEEVLRNITMGQLFETLQEKMNA | soluble |
| MITMPKLFIYHANQCNPKKCTSLKMAKMNKAILLKNPYKVPKNSLILNPYAEKALSPEDKEIVEKFGITALDCSWKEAELMFKKFKFKNQRSLPFLVACNPINYGKPCMLSTLEAFIAALYITNFKDEAWDLTSCFKWAETFIKVNYELLERYSNAKNSMEVVEIQQDFLRKLEHHHHHH | soluble |
| MITPDLESGVKVWHLVKNHDHGDQKEGDRGSKMVSEIYLTRLLATKGTLQKFVDDLFETLFSTVHRGSALPLAIKYMFDFLDEQADRHSIHDTDVRHTWKSNCLPLRFWVNVIKNPQFVFDIHKGSITDACLSVVAQTFMDSCSTSEHRLGKDSPSNKLLYAKDIPSYKNWVERYYADIAKLPAISDQDMNAYLAEQSRLHATEFNMLSALNEIYSYVSKYSEELIGALEQDEQARRQRLAYKVEHLINAMSIES | not soluble |
| MITRDFFLFLSKSGFLNKMARNWGSRVAAGKIIGGNDFNSSIPTIRQLNSQGLSVTVDHLGEFVNSAEVARERTEECIQTIATIADQELNSHVSLKMTSLGLDIDMDLVYENMTKILQTAEKHKIMVTIDMEDEVRCQKTLDIFKDFRKKYEHVSTVLQAYLYRTEKDIDDLDSLNPFLRLVKGAYKESEKVAFPEKSDVDENYKKIIRKQLLNGHYTAIATHDDKMIDFTKQLAKEHGIANDKFEFQMLYGMRSQTQLSLVKEGYNMRVYLPYGEDWYGYFMRRLAERPSNIAFAFKGMTKKLEHHHHHH | soluble |
| MITVSIVSHGQSTLVEQLLADLVRLDMSMVTEVLVTLNIPEDISSKPGDYPYPVRILRNTAARGFGANHNAAFRQAEGEWFCVMNPDIRLINNPFPILIEEGAYDSAGVIAPMVVTPSGMIEDSVRCFPVLTSLAAKLFGHGDGRYLFAAGDEAFAADWVAGMFMLFRTEDFRAVGGFDEGFFLYYEDVDICARLWKSGRSVLACPKASVIHDARRSSRRNLRYMKWHALSLIRYFWKHWGRLPQTPEQLEHHHHHH | soluble |
| MIVERVLYNIKDIDLEKLEVDFVDIEWYEVQKKILRKLSSNGIEVGIRNSNGEALKEGDVLWQEGNKVLVVRIPYCDCIVLKPQNMYEMGKTCYEMGNRHAPLFIDGDELMTPYDEPLMQALIKCGLSPYKKSCKLTTPLGGNLHGYSHSHSH | not soluble |
| MIVIFVHGWSVTHTNTYGELPQWLENQSKQGKLDIQVGNIYLGRYISFDDTVTVDDIARAFDQAVRDEIAAKVKDGQRFACITHSTGGPIVRKWMDLYFKNNLAKCPLSHLIMLAPANHGSALAQLGKSRLGRIKSFFEGIEPGKCVLDWLELGSDMSWQLNESWLDYDCTANGVYSFVLTGQKIDRQLYDAVNSYTGESGSDGVVRVAATNMNYSLLKLHQEGDNGESLVVAKMTRTQPMAFGVLPGLSHSGKNIGIIRSITMANAATHPTAIWVLRCLQVKSRDSYNKLVKELDNITKETQKNEHKEFVKTLVFTREYITNRYSMIIFRLIDDRGNHLIDYDLYLTAGPQYSEQALPAGFFVDRQRNLNNRGKLTYFLDYDIMEGGINTPKMQGNLGFRVKAYPESSEQALAYYRLLDFHSSLADIHKILHPNETVMVEIMLQRRVDKTVFRINNNLTPAKISGKPTGKKID | not soluble |
| MIVTLLGTGDSPGTPILNCHCRTCEDARRKGWERKRFSVMVQNNGKTVLIDTSPDLRRQLLDCGVEKVDAVIWTHCHFDHFGGFGEFYRVQNNVKVYSTPQIHEDIGHFMKFMSYKPVEVEAFENFTIAGMDFTLLPVNHPPVSAVGVKVEWKGYKVVVSGDTNVRIPEATLREMQNPDLLIVEALAPTGRFRKHMNAKEALELAKRLNAGKVVLTHLGHFFPPHHLAIKSYPVGEDYQSFSFGEGRLDEFFGDLEHHHHHH | not soluble |
| MIVVVNEQQVEVDEQTTIAALLDSLGFGDRGIAVALNFSVLPRSDWATKICELRKPVRLEVVTAVQGG | soluble |
| MIVYGLYKSPFGPITVAKNEKGFVMLDFCDCAERSSLDNDYFTDFFYKLDLYFEGKKVDLTEPVDFKPFNEFRIRVFKEVMRIKWGEVRTYKQVADAVKTSPRAVGTALSKNNVLLIIPCHRVIGEKSLGGYSRGVELKRKLLELEGIDVAKFIEK | soluble |
| MIWLVLVLSLFLFSCEKLNEIFLEEDLLQRPPSKRCSDCHAKIYEDWEKSRHAKAWVSEHFKEESENYSKLKCLSCHAPHQVDPLKKPVLRVERRHEGVNCIACHFKEETKAMHGPYKVFSPPHPSREDKNYTKSEICAGCHQKTYREWKIARVKTTCQQCHMKVVDYAWIMDKFPFFLFHSRKALHDHTFPAGKATPKDIKLILTEGALNIINVGIPHNLPTADQGNPKLYLIIEFYYKDGKKKVLRRVLSPQAKTALAYLIPYTVKIPRYEKLEKVRVSIYRRLAWEKKRELILSEELKKPF | not soluble |
| MIYRKATEKDIAQLVELRKKQLEDEGIAPINNIDTELTHFFELSFKKNSFISWISEEDNEIIATSGVCFYKYPPSYLNPSGKVAYITNMYTKYEYRSRGIALALLKLVILEAKKRDYLFLRLHASDMGRPIYEEIGFKPFDDFMEMNLSLNRNGELEHHHHHH | soluble |
| MIYTVTLNPSIDYVVQVNSLDLGAVNRAEKDMKFPGGKGINVSRVLHRLGVENVALGFTGGFTGRFIKDVLQTEGVITNFVQVDGDSRINVKIKGQEETELNGQGPSVTNEQFEQLMKQIESMQKGDYVVLAGSVPASIPTTFYESIAAFGAEKGIRVVVDASGSALQHVVKNKPFLIKPNHHELGELFGVEISTAEDILPYGRKLIEQGVEHVIVSMAGDGALLFTAEGIYEATVPKGVVINSVGAGDSLVAGFVGKYEQTKDIEKAFQYGVATGSATAFSADLCEKEKVEELLSQVIVTKR | not soluble |
| MKAKREALISLFHAIKEEKVDSDIIDLLLLINSIKGIYTTSSCSGRIGILEEPSLGAKPLSRWLIKVHRPMSFEEARDALKRAREGLIFLKSQPPIFHVVAETIENAKLVHEIGLASGFKYTTFKAISSRFLVEINGTEYLTVPLGKDGRIIASDEYLKFAISIGNKMLERGKSKLPRLRDNFEKIKKKLGEDPLFIQLKREILEI | soluble |
| MKARQQKYCDKIANFWCHPTGKIIMSLAGKKIVLGVSGGIAAYKTPELVRRLRDRGADVRVAMTEAAKAFITPLSLQAVSGYPVSDSLLDPAAEAAMGHIELGKWADLVILAPATADLIARVAAGMANDLVSTICLATPAPVAVLPAMNQQMYRAAATQHNLEVLASRGLLIWGPDSGSQACGDIGPGRMLDPLTIVDMAVAHFSPVNDLKHLNIMITAGPTREPLDPVRYISNHSSGKMGFAIAAAAARRGANVTLVSGPVSLPTPPFVKRVDVMTALEMEAAVNASVQQQNIFIGCAAVADYRAATVAPEKIKKQATQGDELTIKMVKNPDIVAGVAALKDHRPYVVGFAAETNNVEEYARQKRIRKNLDLICANDVSQPTQGFNSDNNALHLFWQDGDKVLPLERKELLGQLLLDEIVTRYDEKNRR | not soluble |
